This note sets out measurements from patent US5736294A, “Reagents and methods for modulating gene expression through RNA mimicry” (ISIS Pharmaceuticals, Inc., priority 1991, dated 1998).

Data set [1] deals with T1, HIV-1 Tat 37-mer peptide (tat37) (Human immunodeficiency virus 1, UniProt P69698 SEQ:1-37).
T1 chain: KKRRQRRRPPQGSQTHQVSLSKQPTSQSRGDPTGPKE
The data set can be described thus: EMSA; 1:1 KD; 2-3:1 KD 8200 nM; Table 4 gives 60 nM; 4 C. The following applies: protein: synthetic; tags: chemically synthesized peptide, RP HPLC purified (UCSF Biotechnology Resource Core); label: 32P; hairpin, stem-bulge-loop. Background: In EMSA bound probe runs differently from free probe, usually more slowly.

The target of data set [2] is T2, HIV-1 Tat 25-mer peptide (tat25) (Human immunodeficiency virus 1, UniProt P69698 SEQ:1-25).
T2 chain: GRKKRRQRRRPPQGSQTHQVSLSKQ
The data set is described as follows: EMSA; 1:1 KD; repeated in Table 4. The note with it: protein: synthetic, tags: peptide fragment, label: 32P, hairpin, stem-bulge-loop.

Data set [3] deals with T2, HIV-1 Tat 25-mer peptide (tat25). The data set is described as follows: EMSA; 1:1 KD; repeated in Table 4 under tat37 heading. The following applies: protein: synthetic, tags: peptide fragment, label: 32P, hairpin, stem-bulge-loop.

As usually defined, the Kd is a measure of binding affinity in units of concentration. Lower therefore signals higher affinity.

B1: 2'-OMe deltaTAR #2306 29-mer (16-45 -A17) (ssRNA)
RNA: GCCAGAUCUGAGCCUGGGAGCUCUCUGGC
modifications: 2'-OMe throughout
Consider B1, for which the figures for the Kd in data set [1] and in data set [2] were 86.6 nM and 31.6 nM, respectively.

B2: deltaTAR29 #3153 (16-45 -A17) (ssRNA)
RNA: GCCAGAUCUGAGCCUGGGAGCUCUCUGGC
In the case of B2, the Kd in data set [3] came out at 17.3 nM.
